For 2 substances, KD(peptide)/KD(GalNAc-T), Kd and KD(peptide)/KD(GalNAc-S) results are on record in article doi:10.1101/2022.07.24.501275.

Common to all, as to experiment: SPR
The target of assay [1] is 16A Fab W34F (mouse | human).
Assay [2] concerns the target 14A Fab G32R (mouse | human).
Assay [3] deals with 16A Fab R32G (mouse | human).

MUC1 glycopeptide RPAPGST(Tn)APPAHG returned a KD(peptide)/KD(GalNAc-T) in assay [1] of 2.8 fold. What is called Kd is a measure of binding affinity in units of concentration. The low end stands for tighter binding, the high end for weaker binding. The substance MUC1 glycopeptide RPAPGS(Tn)TAPPAHG yielded a Kd in assay [2] of 128 nM. For the same substance, in assay [3], the KD(peptide)/KD(GalNAc-S) came to 1.9 fold.
